Source: article PMC10002482, “BMPER Improves Vascular Remodeling and the Contractile Vascular SMC Phenotype” (International Journal of Molecular Sciences, 2023)
Blank lines part the entries; values can stand above or below the binder they belong to.

Assays:
[1] = target: T1, recombinant BMPER (BMP endothelial cell precursor-derived regulator) ( (recombinant human and …, UniProt Q8N8U9 40-685)); assay: SPR; BIAcore 2000; BMP-4 immobilised at 430 RU on CM5 by amine coupling; 0-320 nM BMPER or IGFBP-4 injected in HBS-EP; 1:1 model with mass transfer; apparent KD = kd/ka; conditions: both partners purified
T1 construct: BMPER, recombinant protein used as analyte in SPR; whether this holds for the SPR proteins is surmised; Secreted glycoprotein; also called soluble BMPER; source: recombinant
T1 sequence (Q8N8U9 40-685): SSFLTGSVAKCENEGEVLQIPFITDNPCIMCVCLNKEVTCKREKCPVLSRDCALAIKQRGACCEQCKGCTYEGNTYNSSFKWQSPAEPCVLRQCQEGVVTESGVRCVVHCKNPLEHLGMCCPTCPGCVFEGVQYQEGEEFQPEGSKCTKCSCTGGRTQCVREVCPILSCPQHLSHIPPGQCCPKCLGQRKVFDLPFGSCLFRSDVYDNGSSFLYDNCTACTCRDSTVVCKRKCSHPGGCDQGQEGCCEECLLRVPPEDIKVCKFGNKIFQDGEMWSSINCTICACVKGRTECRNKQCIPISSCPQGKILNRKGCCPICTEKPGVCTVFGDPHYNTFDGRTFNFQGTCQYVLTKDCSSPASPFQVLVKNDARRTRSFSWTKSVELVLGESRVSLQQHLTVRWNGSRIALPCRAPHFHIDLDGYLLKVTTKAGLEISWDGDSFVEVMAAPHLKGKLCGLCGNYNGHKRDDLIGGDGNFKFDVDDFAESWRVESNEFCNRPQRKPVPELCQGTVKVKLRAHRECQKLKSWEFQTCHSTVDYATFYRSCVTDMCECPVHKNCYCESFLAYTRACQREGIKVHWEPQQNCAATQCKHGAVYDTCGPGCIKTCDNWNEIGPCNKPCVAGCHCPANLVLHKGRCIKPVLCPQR

[2] = target: T1, recombinant BMPER (BMP endothelial cell …); assay: SPR; BIAcore 2000; IGFBP-4 immobilised at 360 RU on CM5 by amine coupling; 0-320 nM BMPER injected in HBS-EP (0.01 M HEPES pH 7.4, 0.15 M NaCl, 3 mM EDTA, 0.005% P20), 180 s association, 180 s dissociation; 1:1 model with mass transfer; apparent KD = kd/ka; conditions: both partners purified

Kd [1]: 1.5 nM
B1: BMP-4 (bone morphogenetic protein 4) (ligand, UniProt P12644 293-408, looked up)
chain: SPKHHSQRARKKNKNCRRHSLYVDFSDVGWNDWIVAPPGYQAFYCHGDCPFPLADHLNSTNHAIVQTLVNSVNSSIPKACCVPTELSAISMLYLDEYDKVVLKNYQEMVVEGCGCR
notes: BMP4, immobilised on a CM5 chip in SPR

Kd [2]: 6.04 ± 1.86 nM
B2: recombinant IGFBP-4 (insulin-like growth factor-binding protein 4) (natural protein, UniProt P22692 22-258, looked up)
chain: DEAIHCPPCSEEKLARCRPPVGCEELVREPGCGCCATCALGLGMPCGVYTPRCGSGLRCYPPRGVEKPLHTLMHGQGVCMELAEIEAIQESLQPSDKDEGDHPNNSFSPCSAHDRRCLQKHFAKIRDRSTSGGKMKVNGAPREDARPVPQGSCQSELHRALERLAASQSRTHEDLYIIPIPNCDRNGNFHPKQCHPALDGQRGKCWCVDRKTGVKLPGGLEPKGELDCHQLADSFRE
notes: IGFBP4, recombinant protein immobilised or injected in SPR; whether this holds for the SPR proteins is surmised; source: recombinant
